Measurements as given in US8865222B2, “Beta-casein assemblies for enrichment of food and beverages and methods of preparation thereof” (Technion Research and Development Foundation Ltd., priority 2008, dated 2014).
Several values for one entry are separate records, joined by “and”; a condition that tells them apart may be missing. Equal values may be shown once.

Legend:
[1] = Turbidity (solution absorbance at 600 nm); assay type: physicochemical; conditions: pH 2.6, empty assemblies, up to at least 2 wt %
[2] = Small angle X-ray scattering (SAXS) of beta-casein micellar solutions; assay type: physicochemical; conditions: for aggregation number: pH 6.7, 0.05M NaCl
Procedure: Small Angle X-ray Scattering (SAXS): The small angle x-ray scattering equipment consisted of a SAXSess camera (Anton-Paar, Graz, Austria) connected to an x-ray generator (Philips, PW1730/10) operating at 40 kV and 50 mA with a sealed-tube Cu anode. A Göbel mirror was used to convert the divergent polychromatic x-ray beam into a focused line-shaped beam of Cu Kα radiation (λ=0.154 nm). The 2D scattering pattern was recorded by a PI-SCX fused fiber optic taper CCD camera from Princeton Instruments, which is a division of Roper Scientific, Inc. (Trenton, N.J., USA). The used CCD detector features a 2084×2084 array with 24×24 μm pixel size (chip size: 50×50 mm). The CCD was operated at −30° C. with 10° C. water-assisted cooling to reduce the thermally generated charge. Cosmic ray correction and background subtraction were performed on the 2D image before further data processing. The 2D image was integrated into the one-dimensional scattering function within a band of 10 mm. The measurement time was 30 min for each scattering curve (6 images of 5 minutes were taken to assist the cosmic ray correction).
Determination of the Beta-Casein Assemblies Molecular Weights.
The molecular weight of the scattering aggregates were calculated according to Eq. 1:
[formula] where M is the molecular weight, dΣ(0)/dΩ (cm^−1) the forward scattering intensity at q=0, c (g/cm^3) the beta-casein concentration, NA the Avogadro number, and ΔρM (cm/g) the scattering length difference per mass, given by: ΔρM=Δρ v (2)
The scattering length difference Δρ (cm^−2) was calculated using the known chemical composition of the protein and the solvent, and v (cm^3/g), the specific volume of the protein in the solution that was calculated via density measurement of the solvent and the solution. The micelle aggregation number was then calculated by dividing the molecular weight of the micelles determined with Eq. 1, by the molecular weight of a single protein molecule.
For a particle of arbitrary shape with a scattering density difference of Δρ(r), the pair distance distribution function p(r) (PDDF) is given by: p(r)=r^2Δ ρ^2(r) (3) where Δ ρ^2(r) is the convolution square of Δρ(r) averaged for all directions in space. The PDDF is related to the scattered intensity I(q) by a Fourier transformation, and it enables the determination of the overall shape and size of the scattering objects.
[formula] where q is the magnitude of the scattering vector q, defined as
[formula] λ is the wavelength of the incident radiation and θ is the angle between the scattered and incident beam. The function ƒ(r)=p(r)/r (6) is useful to identify flat plate-like particles, although it has no direct physical meaning. For lamellae, this function starts with a linearly increasing part and becomes almost flat when r is equal to the thickness of the lamella. For flat particles with a finite base area, the outer part decreases linearly because of boundary losses. The thickness of the lamella can then be read from the transition point. […] The standard error of the analytical ultracentrifugation data is 5%, and that of the Rg is 4%. The analysis supports the statistical significance and validity of the results.
• Characterization of the beta-casein micelles by SAXS: We have applied SAXS measurements to determine the shape and dimensions of the micelles at low pH and at neutral pH, more precisely, and to evaluate the micelle molecular weight (i.e., the aggregation number). The scattering curves of 20 mg/mL beta-casein in lactic acid solution (pH 2.6, IS 0.0022) at different temperatures are shown in FIG. 3a. […] Consequently, the calculated Pair Distance Distribution Functions (PDDF), are also similar (FIG. 3b). The maximum micelle dimension is approximately 25 nm at all temperatures. The area under the PDDF curve, which is proportional to the weight of one particle, is almost constant. To calculate the aggregation number, the density of the solvent and the solution was measured at various temperatures (Table 2). […]

B1: beta-casein: lyophilized bovine beta-casein (~24 kDa milk protein) self-assembled into nano-sized micelles at low or neutral pH (protein, UniProt P02666 16-224, looked up)
Beta-casein: RELEELNVPGEIVESLSSSEESITRINKKIEKFQSEEQQQTEDELQDKIHPFAQTQSLVYPFPGPIPNSLPQNIPPLTQTPVVVPPFLQPEVMGVSKVKEAMAPKHKEMPFPKYPVEPFTESQSLTLTDVENLHLPLPLLQSWMHQPHQPLPPTVMFPPQSVLSLSQSKVLPVPQKAVPYPQRDMPIQAFLLYQEPVLGPVRGPFPIIV
Q: Which turbidity [1] does the source give for B1 here?
A: does not vary significantly

Q: And the maximum micelle dimension ([2]; 20 mg/mL, pH 2.6, IS 0.0022, all temperatures 4-40 °C)?
A: approximately 25 nm

Q: And the aggregation number ([2]; 20 mg/mL, 1 °C)?
A: 7

Q: What about the aggregation number ([2]; 20 mg/mL, 60 °C) of the same molecule?
A: 210

Q: And the Nagg ([2]; pH 2.6, 4 °C, 2 wt % beta-casein, SAXS)?
A: 8

Q: And the Nagg ([2]; pH 2.6, 16 °C, SAXS)?
A: 10

Q: And the aggregation state ([2]; pH 2.6, 25 °C, 0.1 wt %)?
A: monomers

Q: What about the aggregation state ([2]; pH 2.6, 25 °C, 0.25 wt %) of the same molecule?
A: dimers

Q: And the CMC ([2]; pH 2.6, 25 °C, SAXS)?
A: 0.1-0.2 wt %

Q: And the Nagg ([2]; pH 2.6, 25 °C, SAXS)?
A: 11

Q: And the Nagg ([2]; pH 2.6, 40 °C, SAXS)?
A: 9

Q: And the “thickness of the particles” value ([2]; pH 2.6, all temperatures, from f(r) transition point)?
A: ~3.5 nm

Q: And the “Micelle Dimensions” value ([2]; pH 2.6, as a function of temperature 4-40 °C)?
A: Constant

Q: And the “typical sizes of beta-casein micelles” value ([2]; pH 7.0, ionic strength 0.1, depending on protein concentration)?
A: 13-15 nm and 22-25 nm
